The values that follow are results of earlier work, collected in article PMC5519984.

A word on the Kd: it is the free concentration of one partner at which half of the binding sites on the other are occupied at equilibrium, for simple one-to-one binding.

Where two headings read alike, the source gives them in different places.

The target in data set [1] is Ras (Homo sapiens) (UniProt P01112).
Data set [2] has the same target. The source holds these as a separate data set.

As for HBS3 929-944 (from UniProt Q07889), the Kd was 28 µM in the data set with Ras (Homo sapiens) [1] and 158 µM with Ras (Homo sapiens) [2].
